Laboratory results published in article PMC12607152.

How the values were obtained:
[1] = biological target: T1, CcpA (catabolite control protein A) (Staphylococcus aureus (XN108?)) (UniProt P99175); experiment: EMSA; conditions: not given in the material; EMSA as previously described (ref 22)
T1 sequence: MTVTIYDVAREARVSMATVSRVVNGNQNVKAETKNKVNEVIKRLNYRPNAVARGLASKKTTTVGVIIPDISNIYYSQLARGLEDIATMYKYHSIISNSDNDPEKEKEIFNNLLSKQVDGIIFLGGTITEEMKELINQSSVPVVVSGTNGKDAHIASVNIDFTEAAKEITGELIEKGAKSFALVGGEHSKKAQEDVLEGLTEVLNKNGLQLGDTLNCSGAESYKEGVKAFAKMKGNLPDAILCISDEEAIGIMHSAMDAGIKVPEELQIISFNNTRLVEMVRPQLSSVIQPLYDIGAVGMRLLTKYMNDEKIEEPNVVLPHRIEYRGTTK

[2] = biological target: T1, CcpA (catabolite control protein A) (Staphylococcus aureus (XN108?)); experiment: competition; conditions: not given in the material; EMSA as previously described (ref 22)

| Sequence | binding [1] | binding [2] |
| --- | --- | --- |
| CAGTCCTCAACTCTTTTAATGTTTTCATGTTGTCACCGCCTTTCGTAAACCTAATATAATACGAAATTTTCGTATTGTCAACATTAAATACGTTTTTTTCGTAAAAAACTTTACTATGATATGAAAATTTCGTATAATAAGAAAAAAGGAGGTAAGTAAT (double strand) [PcI probe (160-bp region upstream of cI)] | binds | – |
| CAGTCCTCAACTCTTTTAATGTTTTCATGTTGTCACCGCCTTTCGTAAACCTAATATAATACGAAATTTTCGTATTGTCAACATTAAATACGTTTTTTTCGTAAAAAACTTTACTATGATATGAAAATTTCGTATAATAAGAAAAAAGGAGGTAAGTAAT (double strand) [PcI unlabeled competitor] | – | binds |
